Measured values: the supplement of paper PMC7125110
± gives the standard error. This sample holds only a part of the variants without activity.

B1: glmS ribozyme (parent)
chain: AUAAAAGCGCCAGAACUACAGAAAUGUAGUUGACGAGGAGGAGGUUUAUCGAAUUUUCGGCGGAUGCCUCCAAA

What was measured:
Conditions in all cases: with glucosamine-6-phosphate
glucosamine-6-phosphate [1] = variants of: B1; assay: self-cleavage kobs at 40 uM GlcN6P; higher = faster cleavage; RNA array
In short: (§1)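 In situ transcription by E. coli RNA polymerase produced barcoded ribozyme variants on sequenced MiSeq chips, and a hybridised Cy3 probe tracked them at 37 °C. Glucosamine-6-phosphate was flowed in at 40 μM to 10 mM in HEPES/KCl/Mg(OAc)2 buffer. kcat and KM were taken from weighted Michaelis–Menten fits of kobs values from exponential decay fits.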

glucosamine-6-phosphate [2] = variants of: B1; assay: self-cleavage kobs at 640 uM GlcN6P; higher = faster cleavage; RNA array
In short: as §1

glucosamine-6-phosphate [3] = variants of: B1; assay: self-cleavage kobs at 10000 uM GlcN6P; higher = faster cleavage; RNA array
In short: as §1

glucosamine-6-phosphate [4] = variants of: B1; assay: self-cleavage kobs at 160 uM GlcN6P; higher = faster cleavage; RNA array
In short: as §1

glucosamine-6-phosphate [5] = variants of: B1; assay: self-cleavage kobs at 2500 uM GlcN6P; higher = faster cleavage; RNA array
In short: as §1

Variant | self-cleavage kobs at 40 uM GlcN6P (glucosamine-6-phosphate [1]) [s⁻¹] | self-cleavage kobs at 640 uM GlcN6P (glucosamine-6-phosphate [2]) [s⁻¹] | self-cleavage kobs at 10000 uM GlcN6P (glucosamine-6-phosphate [3]) [s⁻¹] | self-cleavage kobs at 160 uM GlcN6P (glucosamine-6-phosphate [4]) [s⁻¹] | self-cleavage kobs at 2500 uM GlcN6P (glucosamine-6-phosphate [5]) [s⁻¹]
AUAAAAGCGCCAGAACUACAGAAAUGUAGUUGACUAGGAGGAGGUUUAUCGAAUUUUCAGCGGAUGCCUCCAAA [G35U G59A] | < 1e-05 | < 1e-05 |  |  | 
AUAAAAGCGCCAGCACUACAGAAAUGUAGUUGACGAGGAGGAGGUUUAUCGAAUUUUCGGCGGAUGUCUUCAAA [A14C C67U C70U] | < 1e-05 |  | 6.08e-05 ± 1.4e-05 |  | 
AUAAAAGCGCCAGAACUACAGAAAUGUAGUUGGCGAGGAGGAGGAUUAUCGAAUUUUCGGCGGAUGCCUCAAAA [A33G U45A C71A] | < 1e-05 |  | < 1e-05 |  | 
AUAAAAGCGCCAGAACUACAGAAAUGUAGUAGACGGGGAGGAGGUUUAUCGAAUUUUCGGCGGAUGCCUCCAAA [U31A A36G] | < 1e-05 | < 1e-05 |  | < 1e-05 | 
AUAAAAGCGUCCGAACUACAGAAAUGUAGUUGACGAGGAGGAGGUUUAUCGACUUUUCGGCGGAUGCCUCCAAA [C10U A12C A53C] | < 1e-05 |  |  |  | 
AUAAAAGCGCCAGAACUACAGAAAUGUAGAUGACGAGGUGGAGGUUUAUCGAAUUUUCGGCUGAUGCCUCCAAA [U30A A39U G62U] | < 1e-05 |  |  |  | 
AUAAAAGCGCCAGAACUACAGAAAUGUAGUUGACGAGCAGGAGGUUUAUCGAAUUGUCGGCGGAUGCCUCCAAA [G38C U56G] | < 1e-05 | < 1e-05 |  | < 1e-05 | < 1e-05
AUAAAAGCGCAAGAACUACAGAAAUGUAGUUGACGAGGAGGAGGUUUAUCGAAUUUUCGGUGGAUGCCUUCAAA [C11A C61U C70U] | < 1e-05 |  | < 1e-05 |  | 
AUAAAAGCGCCAGAACUACAGAAAUGUAGUUGACGAGGAGGAGGUUUCCCGAAUUUUCGGGGGAUGCCUCCAAA [A48C U49C C61G] | < 1e-05 |  | < 1e-05 | < 1e-05 | < 1e-05
AUAAAAGGGCCAGAGCUACAGAAAUGUAGUUGACGAGGGGGAGGUUUAUCGAAUUUUCGGCGGAUGGCUCCAAA [C8G A15G A39G C67G] | < 1e-05 |  |  |  | 
AUAAAAGCGCCAGAACUACAGAAAUGUAGUUGAUGCGGAGGAGGUUUAUCGAAUUUUAGGCGGAUGCCUCCAAA [C34U A36C C58A] | < 1e-05 |  |  |  | 
AUAAAAGCGCCUGAACUACAGAAAUGUAGUUGACGAGGAGGAGGUUUAUCCAAUUUUCGGCGGAUGCCUCCAAA [A12U G51C] | < 1e-05 | < 1e-05 |  | < 1e-05 | < 1e-05
AUAAAAGCGCCAGAACUACAGAAAUGUAGUUGACGAGGAGGAGGUUUAUCGAAAUUUCGGCGCAUGCCUCCAAA [U54A G63C] | < 1e-05 |  | < 1e-05 |  | 
AUAAAAGCGUCAGAACUACAGAAAUGUAGUUGACGAGGAGGAGGUUUAUCGCAUUUUCGGCGGAUGCCUCCAAA [C10U A52C] | < 1e-05 |  | < 1e-05 |  | 
AUAAAAACGCCAGAACUACAGAAAUGUAGUUGACGAGGAGGAGGUCUAUCGAAUUUUCGGCGGAUGCCUCCAAA [G7A U46C] | < 1e-05 | < 1e-05 | < 1e-05 |  | 
AUAAAAGCGCCGGAACUACAGAAAUGUAGUUGACGAGGAGGAGGUUUAUCGACUGUUCGGCGGAUGCCUCCAAA [A12G A53C U55G] | < 1e-05 |  | 0.000115 ± 1.8e-05 |  | 

Variant | self-cleavage kobs at 40 uM GlcN6P (glucosamine-6-phosphate [1]) [s⁻¹] | self-cleavage kobs at 640 uM GlcN6P (glucosamine-6-phosphate [2]) [s⁻¹] | self-cleavage kobs at 10000 uM GlcN6P (glucosamine-6-phosphate [3]) [s⁻¹] | self-cleavage kobs at 160 uM GlcN6P (glucosamine-6-phosphate [4]) [s⁻¹] | self-cleavage kobs at 2500 uM GlcN6P (glucosamine-6-phosphate [5]) [s⁻¹]
AUAAAAGCGCCAGAACUACAGAAAUGUAAUUGAUGAGGAGGAGGUUUAUCGAAUUUUCGGCGGAUGCCUCCAAA [G29A C34U] | < 1e-05 |  |  |  | 
AUAAAAGCGACAGAACUACAGAAAUGUAGCUGACGAGGAGGAGGUUUAUCGAAUUUUCGGAGGAUGCCUCCAAA [C10A U30C C61A] | < 1e-05 |  |  |  | 
AUAAAAGCGCCAGAAAUACAGAAAUGUAGUUGACGAGGACGAGGUUUAUCGAAUUUUCGGCGGAUGCCUCCAAA [C16A G40C] | < 1e-05 | 4.46e-05 ± 1.5e-05 |  |  | 0.000112 ± 1.8e-05
AUAAAAGCACCAUAGCUACAGAAAUGUAGUUGACGACGCGGAGGUUUAUCGAUUUUUCGGCGGAUGGAUCCAAA [G9A G13U A15G G37C A39C A53U C67G C68A] | 0.000469 ± 0.00015 | 0.000121 ± 4.4e-05 | 0.000282 ± 7.8e-05 |  | 
AUAAAGGCGCCAGAUCUACAGAAAUGUAGUUGAAGAGGAGGAGGUUUAUCGAAUUUUCGGCGGAUGCCUCCAAA [A6G A15U C34A] | < 1e-05 | < 1e-05 | < 1e-05 | < 1e-05 | < 1e-05
AUAAAAGCGCGAGAACUACAGAAAUGUAGUUGACGGGGAGGAGGUUUAACGAAUUUUCGGCGGACGCCUUCAAA [C11G A36G U49A U65C C70U] | < 1e-05 |  | < 1e-05 |  | 
AUAAAAGCACCAGAACUACAGAAAUGUAGUUGACGAGGAUGAGGUUUAUGGAAUUUUCGGCGGAUGCCUCCAAA [G9A G40U C50G] | < 1e-05 |  |  |  | 
AUAAAAGCGCCAGAACUACAGAAAUGUAGUUGACGAGGAGGAGGUUUAUGGAAUUUUCGGCGAAUGCCUCCAAA [C50G G63A] | 5.7e-05 ± 1.5e-05 | 4e-05 ± 1.7e-05 |  | 0.000484 ± 0.00023 | 3.78e-05 ± 1.6e-05
AUAAAAGCGCCAAAACUACAGAAAUGUAGUUGACGAGGAGGAGGUUUAUCGAAUUUUCGGCGGAUGACUCAAAA [G13A C67A C71A] | < 1e-05 |  |  |  | 
AUAAAAGCGCCAGAACUACAGAAAUGUAGUUGAAGAGGCGGAGGUUUAUCGAAUUUUCGGCGGAUGCCUCCAAA [C34A A39C] | < 1e-05 |  | < 1e-05 | < 1e-05 | < 1e-05
AUAAAAGCGCCAGAACUACAGAAAUGUAGUUGACGAGGAGGAGGUUUAUCGAAUUUUCUGGGGGUGCCUCCAAA [G59U C61G A64G] | < 1e-05 | < 1e-05 | < 1e-05 |  | < 1e-05
AUAAAAGCGCCGGAACUACAGAAAUGUAGUUGACGAGGAGCAGGUUUAUCGAAUUUUCGGUGGAUGCCUCCAAA [A12G G41C C61U] | < 1e-05 |  | < 1e-05 |  | < 1e-05
AUAAAAGCGCCAGAACUACAGAAAUGUAGGUGACGAGGAGGAGGUUUAUCGUAAUUUCGGCGGAUGCCUCCAAA [U30G A52U U54A] | < 1e-05 |  | 4.6e-05 ± 1.6e-05 |  | 
AUAAAAGCGCCAGAACUACAGAAAUGUAGUUGACGAGGAGGAGGUUUAUCGAAAUUUCGCCGGAUGCCUCCAAA [U54A G60C] | < 1e-05 | < 1e-05 | < 1e-05 |  | 
AUAAAAGAGCUAGAACUACAGAAAUGUAGUUGACGAGGAGGAGGUCUAUCGAUUUUUCGGCGGAUGCCUCCAAA [C8A C11U U46C A53U] | < 1e-05 |  |  |  | 
